B1: Pistol ribozyme (parent)
chain: GGGUCGUUGUUCCAUAAUCGCGUGGAUAUGGCACGCAAGUUUCUACCGGGCACCGUAAAUGUCCGACUGGAGCCGUUCGGGCGGCUAUAAACAGACCUCAGGCCCGAAGCGUGGCGGCACCUGCCGCCGGUGGUAAAAAAGAUCGGAAGAGCACACGUCU

Variants of: B1
Test: aptazyme ON/OFF ratio, guanine; higher = stronger switching; co-transcriptional cleavage with and without guanine

Row | Variant | aptazyme ON/OFF ratio
1 | GGGUCGAAAGCAUAUAAUCGCGUGGAUAUGGCACGCAAGUUUCUACCGGGCACCGUAAAUGUCCGACUGGAGCCGUUCGGGCGGCUAUAAACAGACCUCAGGCCCGAAGCGUGGCGGCACCUGCCGCCGGUGGUAAAAAAGAUCGGAAGAGCACACGUCU [U7A U8A G9A U10G U11C C12A C13U] | 1.19
2 | GGGUCGAAAGCAGAUAAUCGCGUGGAUAUGGCACGCAAGUUUCUACCGGGCACCGUAAAUGUCCGACUGGAGCCGUUCGGGCGGCUAUAAACAGACCUCAGGCCCGAAGCGUGGCGGCACCUGCCGCCGGUGGUAAAAAAGAUCGGAAGAGCACACGUCU [U7A U8A G9A U10G U11C C12A C13G] | 1.14
3 | GGGUCGAAAGCGGAUAAUCGCGUGGAUAUGGCACGCAAGUUUCUACCGGGCACCGUAAAUGUCCGACUGGAGCCGUUCGGGCGGCUAUAAACAGACCUCAGGCCCGAAGCGUGGCGGCACCUGCCGCCGGUGGUAAAAAAGAUCGGAAGAGCACACGUCU [U7A U8A G9A U10G U11C C12G C13G] | 1.17
4 | GGGUCGAAAGCGAAUAAUCGCGUGGAUAUGGCACGCAAGUUUCUACCGGGCACCGUAAAUGUCCGACUGGAGCCGUUCGGGCGGCUAUAAACAGACCUCAGGCCCGAAGCGUGGCGGCACCUGCCGCCGGUGGUAAAAAAGAUCGGAAGAGCACACGUCU [U7A U8A G9A U10G U11C C12G C13A] | 1.24
5 | GGGUCGAAAGCGUAUAAUCGCGUGGAUAUGGCACGCAAGUUUCUACCGGGCACCGUAAAUGUCCGACUGGAGCCGUUCGGGCGGCUAUAAACAGACCUCAGGCCCGAAGCGUGGCGGCACCUGCCGCCGGUGGUAAAAAAGAUCGGAAGAGCACACGUCU [U7A U8A G9A U10G U11C C12G C13U] | 1.31
6 | GGGUCGAAAGGCCAUAAUCGCGUGGAUAUGGCACGCAAGUUUCUACCGGGCACCGUAAAUGUCCGACUGGAGCCGUUCGGGCGGCUAUAAACAGACCUCAGGCCCGAAGCGUGGCGGCACCUGCCGCCGGUGGUAAAAAAGAUCGGAAGAGCACACGUCU [U7A U8A G9A U10G U11G] | 1.07
7 | GGGUCGAAAGCUCAUAAUCGCGUGGAUAUGGCACGCAAGUUUCUACCGGGCACCGUAAAUGUCCGACUGGAGCCGUUCGGGCGGCUAUAAACAGACCUCAGGCCCGAAGCGUGGCGGCACCUGCCGCCGGUGGUAAAAAAGAUCGGAAGAGCACACGUCU [U7A U8A G9A U10G U11C C12U] | 1.05
8 | GGGUCGAAAGCGCAUAAUCGCGUGGAUAUGGCACGCAAGUUUCUACCGGGCACCGUAAAUGUCCGACUGGAGCCGUUCGGGCGGCUAUAAACAGACCUCAGGCCCGAAGCGUGGCGGCACCUGCCGCCGGUGGUAAAAAAGAUCGGAAGAGCACACGUCU [U7A U8A G9A U10G U11C C12G] | 1.13
9 | GGGUCGAAAGGAUAUAAUCGCGUGGAUAUGGCACGCAAGUUUCUACCGGGCACCGUAAAUGUCCGACUGGAGCCGUUCGGGCGGCUAUAAACAGACCUCAGGCCCGAAGCGUGGCGGCACCUGCCGCCGGUGGUAAAAAAGAUCGGAAGAGCACACGUCU [U7A U8A G9A U10G U11G C12A C13U] | 1.29
10 | GGGUCGAAAGGAGAUAAUCGCGUGGAUAUGGCACGCAAGUUUCUACCGGGCACCGUAAAUGUCCGACUGGAGCCGUUCGGGCGGCUAUAAACAGACCUCAGGCCCGAAGCGUGGCGGCACCUGCCGCCGGUGGUAAAAAAGAUCGGAAGAGCACACGUCU [U7A U8A G9A U10G U11G C12A C13G] | 1.29
11 | GGGUCGAAAGGAAAUAAUCGCGUGGAUAUGGCACGCAAGUUUCUACCGGGCACCGUAAAUGUCCGACUGGAGCCGUUCGGGCGGCUAUAAACAGACCUCAGGCCCGAAGCGUGGCGGCACCUGCCGCCGGUGGUAAAAAAGAUCGGAAGAGCACACGUCU [U7A U8A G9A U10G U11G C12A C13A] | 1.2
12 | GGGUCGAAAGCCAAUAAUCGCGUGGAUAUGGCACGCAAGUUUCUACCGGGCACCGUAAAUGUCCGACUGGAGCCGUUCGGGCGGCUAUAAACAGACCUCAGGCCCGAAGCGUGGCGGCACCUGCCGCCGGUGGUAAAAAAGAUCGGAAGAGCACACGUCU [U7A U8A G9A U10G U11C C13A] | 1.08
13 | GGGUCGAAAGCCUAUAAUCGCGUGGAUAUGGCACGCAAGUUUCUACCGGGCACCGUAAAUGUCCGACUGGAGCCGUUCGGGCGGCUAUAAACAGACCUCAGGCCCGAAGCGUGGCGGCACCUGCCGCCGGUGGUAAAAAAGAUCGGAAGAGCACACGUCU [U7A U8A G9A U10G U11C C13U] | 1.03
14 | GGGUCGAAAGCCGAUAAUCGCGUGGAUAUGGCACGCAAGUUUCUACCGGGCACCGUAAAUGUCCGACUGGAGCCGUUCGGGCGGCUAUAAACAGACCUCAGGCCCGAAGCGUGGCGGCACCUGCCGCCGGUGGUAAAAAAGAUCGGAAGAGCACACGUCU [U7A U8A G9A U10G U11C C13G] | 1.08
15 | GGGUCGAAAGCUUAUAAUCGCGUGGAUAUGGCACGCAAGUUUCUACCGGGCACCGUAAAUGUCCGACUGGAGCCGUUCGGGCGGCUAUAAACAGACCUCAGGCCCGAAGCGUGGCGGCACCUGCCGCCGGUGGUAAAAAAGAUCGGAAGAGCACACGUCU [U7A U8A G9A U10G U11C C12U C13U] | 1.23
16 | GGGUCGAAAGCUGAUAAUCGCGUGGAUAUGGCACGCAAGUUUCUACCGGGCACCGUAAAUGUCCGACUGGAGCCGUUCGGGCGGCUAUAAACAGACCUCAGGCCCGAAGCGUGGCGGCACCUGCCGCCGGUGGUAAAAAAGAUCGGAAGAGCACACGUCU [U7A U8A G9A U10G U11C C12U C13G] | 1.19
17 | GGGUCGAAAGCUAAUAAUCGCGUGGAUAUGGCACGCAAGUUUCUACCGGGCACCGUAAAUGUCCGACUGGAGCCGUUCGGGCGGCUAUAAACAGACCUCAGGCCCGAAGCGUGGCGGCACCUGCCGCCGGUGGUAAAAAAGAUCGGAAGAGCACACGUCU [U7A U8A G9A U10G U11C C12U C13A] | 1.07
18 | GGGUCGAAAGGACAUAAUCGCGUGGAUAUGGCACGCAAGUUUCUACCGGGCACCGUAAAUGUCCGACUGGAGCCGUUCGGGCGGCUAUAAACAGACCUCAGGCCCGAAGCGUGGCGGCACCUGCCGCCGGUGGUAAAAAAGAUCGGAAGAGCACACGUCU [U7A U8A G9A U10G U11G C12A] | 1.18

Reference: the RNAGym collection of RNA variant scans (doi:10.1021/acssynbio.7b00057)
